Test results from PMC8424379 (2021).

B1: full-length Ccq1 fused to Gal4 activation domain [S. pombe] / Clr3 fused to the Gal4 DNA binding domain [S. pombe] (parent complex)
chain 1: MSEINDFTNSIIINESDTKYEVYSEVNSSNRWIAKEDCPSPLEDVWLLKLAGHKRKLEEPLSCMRNEEPASKQREIEKFLRTDLDHSENDFLTQEVDEFPSTQQLFPIPLQNDTAFDSSEESITKSSKSSFSVLDIGLPMSALQRKMMHRLVQYFAFCIDHFCTGPSDSRIQEKIRLFIQSAHNIAKHPSLYDTEVRNPSAAESTNSHVSLDASNFSSYAENSSKFLFLQELFKNLSPSYSKTFFLFISNQFLANTLTQWLKSQNIDAELWAEEDAKTSQHPAIWICVSKKAPSASHFLQSCPDLSATIFYDIEAYMSVTSSLPSIQSLVLRLIHLGSIEHAIKCFQSSYNASFLVNIVGVVATLSSSSEENSEASNLSTLFEKSGNFEEILGSESHSSITEKTRDIAKNVATWLKNGENFSSWPLPPLMDLASLSVAEPRDSQPSVSQVNDTFVKSSDSTFPSSQSMQSPSKLHSLTSNATDLLSSSSLKKNFFSQQEADEVELSNNYDLQGAAVQYLQRRLRMVEDELHEAINSKNVQQSRSEELEQQISKLTDNLQEYRNTVRELKLDLEKSKKKNEDLSKLEVEKVEEIANLKKELTHLAKQQEFGFKYVQEFSNEDLQGKLIEANEKNYKLTQLLKTQKEDADFITNQYQNASTFAAEQSKEVAKLQAECKRLQAINSKVMEEVKVYNDSRVEALLAKVSSLEETLKILEQKSLPKFTPHNQSPRIIDSN
chain 2: MLASNSDGASTSVKPSDDAVNTVTPWSILLTNNKPMSGSENTLNNESHEMSQILKKSGLCYDPRMRFHATLSEVDDHPEDPRRVLRVFEAIKKAGYVSNVPSPSDVFLRIPAREATLEELLQVHSQEMYDRVTNTEKMSHEDLANLEKISDSLYYNNESAFCARLACGSAIETCTAVVTGQVKNAFAVVRPPGHHAEPHKPGGFCLFNNVSVTARSMLQRFPDKIKRVLIVDWDIHHGNGTQMAFYDDPNVLYVSLHRYENGRFYPGTNYGCAENCGEGPGLGRTVNIPWSCAGMGDGDYIYAFQRVVMPVAYEFDPDLVIVSCGFDAAAGDHIGQFLLTPAAYAHMTQMLMGLADGKVFISLEGGYNLDSISTSALAVAQSLLGIPPGRLHTTYACPQAVATINHVTKIQSQYWRCMRPKHFDANPKDAHVDRLHDVIRTYQAKKLFEDWKITNMPILRDSVSNVFNNQVLCSSNFFQKDNLLVIVHESPRVLGNGTSETNVLNLNDSLLVDPVSLYVEWAMQQDWGLIDINIPEVVTDGENAPVDILSEVKELCLYVWDNYVELSISKNIFFIGGGKAVHGLVNLASSRNVSDRVKCMVNFLGTEPLVGLKTASEEDLPTWYYRHSLVFVSSSNECWKKAKRAKRRYGRLMQSEHTETSDMMEQHYRAVTQYLLHLLQKARPTSQ
B2: full-length Ccq1 fused to Gal4 activation domain [S. pombe] / Raf2 fused to Gal4 DNA-binding domain [S. pombe] (parent complex)
chain 1: B1 chain 1
chain 2: MPPVRAEKKRKTDLIEQVCVTNKAGELVDLEDVLEYGPYSLTGILSSEKDEQEPLFDESIVLGYSIKISPVWTYNLKDVPEKETMSIWIVTPQRRYGILSPSSEYKAIYEQISEKNRLFYLIKTKFKDDMISGTLEDYDNYIEVLKEKLELPSCFQAILLVQKHIRFLLTQMVATSSLHVWSESPFFIRIRSSYEHLILQINKNIYNARQERKKSKLSSNNPSDNNTTMKSSLNQALTLINLPEQPFSISSPTATPQLGVVKRTSPLRFPLNDIWLSGLRIVDPNIESISLWKRIQVSTSPKHQRYISLQEVCSVIAQQLQITNLEALNKLSSHGETLLQIMHTAFTWRGTKLFNDIKHAIGFRSSVQQARSQFRGYCYDYLFMHCNNGEKTSLHLLRTLICMKLDFSNAQLAAKILFHFLLFDIGSGLSGSDYTYEQYINHSAVAFSFTEEIFEKNFVTVLPDFVKLFSISFGYWPAFSFYDELLKLLRNKYPKVYSSTPNLCDQVWLDRTNLFPCNRSTRSTLPYRPTKLLDLASASSCLSKKETDFKQDTGLYSYNLEKVEALKVSPDLQTGIWSCPVQNCLYFAVCDNPYKPSQVIYDHLLGHVDSKFIFKTPSNSVRSFTNKLEHIMYNIN
B3: full-length Ccq1 fused to Gal4 activation domain [S. pombe] / Tpz1 fused to the Gal4 DNA binding domain [S. pombe] (parent complex)
chain 1: B1 chain 1
chain 2: MSNCLKHPWLENGLLNLIKNADVLPIRVFKCQPLQIFEYIRYEHPIRCKLSDTEFYIEAEFSSQSISDLNNFTEKRITSLRGGIVTLGNFLIHLIPSQSGIIPWIQVESFNFQGCEGAVFGNPKAITTSALFNALLQSPYLAALANEFNRSIKEGSSYQEASLSQQEKPNDNTSNSRDIKNNIQFHWKNMTSLSIEECIIPKGQQLILEKESEENTTHGIYLEERKMAQGLHNSVSETPEVKQEDNDEDLDAYSWSSSTDSAGEIPSLPTNRKILEKIAEKPPPFESPLEDDETPDQTNEHEANQVNVSQLPLNPRGSGISGRPVESTEQLNSSLTIERSQSIQSTDSKQRVETQSHRRSKIEIFDAQDELFDRSICTTIDDSTGKLLNAEETPIKTGDLHSTSASSVISCTPPAINFTSDICNEQIELEYKRKPIPDYDFMKGLETTLQELYVEHQSKKRRLELFQLTNNHQKNSEACEMCRLGLPHGSFFELLRDWKKIEEFRNKS
B4: Ccq1_(496–583), Raf2-binding motif of Ccq1, fused to Gal4 activation domain [S. pombe] / Raf2 fused to Gal4 DNA-binding domain [S. pombe] (parent complex)
chain 1: SQQEADEVELSNNYDLQGAAVQYLQRRLRMVEDELHEAINSKNVQQSRSEELEQQISKLTDNLQEYRNTVRELKLDLEKSKKKNEDLS
chain 2: B2 chain 2

Variants of: B1
Experiment: yeast two-hybrid (β-galactosidase); Clr3 fused to the Gal4 DNA binding domain; Ccq1 fused to Gal4 activation domain; parent: 97; read off a plot

How did the response turn out when chain 1 L519R was run?
Its response is about 89.

chain 1 Y518R was tested. Which response did it give?
The response was about 80.

How did the response turn out when chain 1 L511R was run?
The response was about 88.

chain 1 L523R was tested. Which response did it give?
Its response is about 94.

With chain 1 V516R as the variant, how does the response read?
Its response is about 82.

Variants of: B2
Experiment: yeast two-hybrid (β-galactosidase); Raf2 fused to Gal4 DNA-binding domain; Ccq1 fused to Gal4 activation domain; parent: 97; read off a plot

With chain 1 L523R as the variant, how does the response read?
The response was about 51.

chain 1 M525R was tested. Which response did it give?
The response was about 110.

Which response does the source give for chain 1 L511R here?
Its response is about 3.8.

With chain 1 V526R as the variant, how does the response read?
Its response is about 110.

How did the response turn out when chain 1 L519R was run?
Its response is about 4.8.

Which response does the source give for chain 1 V516R here?
Its response is about 3.8.

For chain 1 Y518R, which response is on record?
Its response is about 4.5.

Variants of: B3
Experiment: yeast two-hybrid (β-galactosidase); Tpz1 fused to the Gal4 DNA binding domain; Ccq1 fused to Gal4 activation domain; parent: 94; read off a plot

With chain 1 L523R as the variant, how does the response read?
Its response is about 90.

Which response does the source give for chain 1 V516R here?
The response was about 81.

With chain 1 Y518R as the variant, how does the response read?
Its response is about 91.

With chain 1 L511R as the variant, how does the response read?
Its response is about 95.

Which response does the source give for chain 1 L519R here?
Its response is about 83.

Variants of: B4
Experiment: yeast two-hybrid (β-galactosidase); Raf2 fused to Gal4 DNA-binding domain; Ccq1 fused to Gal4 activation domain; read off a plot

chain 1 SQQEADEVELSNNYDLQGAAVQYLQRRLRRVEDELHEAINSKNVQQSRSEELEQQISKLTDNLQEYRNTVRELKLDLEKSKKKNEDLS [chain 1 M30R] was tested. Which response did it give?
The response was about 92.

chain 1 SQQEADEVELSNNYDRQGAAVQYLQRRLRMVEDELHEAINSKNVQQSRSEELEQQISKLTDNLQEYRNTVRELKLDLEKSKKKNEDLS [chain 1 L16R] was tested. Which response did it give?
Its response is about 3.

Which response does the source give for chain 1 SQQEADERELSNNYDLQGAAVQYLQRRLRMVEDELHEAINSKNVQQSRSEELEQQISKLTDNLQEYRNTVRELKLDLEKSKKKNEDLS [chain 1 V8R] here?
The response was about 82.

chain 1 SQQEADEVELSNNYDLQGAAVQYLQRRLRMREDELHEAINSKNVQQSRSEELEQQISKLTDNLQEYRNTVRELKLDLEKSKKKNEDLS [chain 1 V31R] was tested. Which response did it give?
Its response is about 80.

chain 1 SQQEADEVELSNNYDLQGAAVQYLQRRLRMVEDELHEAINSKNVQQSRSEELEQQISKLTDNLQERRNTVRELKLDLEKSKKKNEDLS [chain 1 Y66R] was tested. Which response did it give?
Its response is about 79.

chain 1 SQQEADEVELSNNYDLQGAAVQYLQRRLRMVEDELHEAINSKNRQQSRSEELEQQISKLTDNLQEYRNTVRELKLDLEKSKKKNEDLS [chain 1 V44R] was tested. Which response did it give?
Its response is about 81.

Which response does the source give for chain 1 SQQEADEVELSNNRDLQGAAVQYLQRRLRMVEDELHEAINSKNVQQSRSEELEQQISKLTDNLQEYRNTVRELKLDLEKSKKKNEDLS [chain 1 Y14R] here?
The response was about 88.

With chain 1 SQQEADEVELSNNYDLQGAAVQRLQRRLRMVEDELHEAINSKNVQQSRSEELEQQISKLTDNLQEYRNTVRELKLDLEKSKKKNEDLS [chain 1 Y23R] as the variant, how does the response read?
The response was about 3.

With chain 1 SQQEADEVELSNNYDLQGAAVQYRQRRLRMVEDELHEAINSKNVQQSRSEELEQQISKLTDNLQEYRNTVRELKLDLEKSKKKNEDLS [chain 1 L24R] as the variant, how does the response read?
The response was about 2.5.

Which response does the source give for chain 1 SQQEADEVELSNNYDLQGAAVQYLQRRRRMVEDELHEAINSKNVQQSRSEELEQQISKLTDNLQEYRNTVRELKLDLEKSKKKNEDLS [chain 1 L28R] here?
Its response is about 3.

Which response does the source give for chain 1 SQQEADEVELSNNYDLQGAARQYLQRRLRMVEDELHEAINSKNVQQSRSEELEQQISKLTDNLQEYRNTVRELKLDLEKSKKKNEDLS [chain 1 V21R] here?
Its response is about 2.8.

Which response does the source give for chain 1 SQQEADEVELSNNYDLQGAAVQYLQRRLRMVEDELHEAINSKNVQQSRSEELEQQISKLTDNRQEYRNTVRELKLDLEKSKKKNEDLS [chain 1 L63R] here?
Its response is about 85.

For chain 1 SQQEADEVELSNNYDLQGAAVQYLQRRLRMVEDERHEAINSKNVQQSRSEELEQQISKLTDNLQEYRNTVRELKLDLEKSKKKNEDLS [chain 1 L35R], which response is on record?
Its response is about 74.

With chain 1 SQQEADEVELSNNYDLQGAAVQYLQRRLRMVEDELREAINSKNVQQSRSEELEQQISKLTDNLQEYRNTVRELKLDLEKSKKKNEDLS [chain 1 H36R] as the variant, how does the response read?
Its response is about 94.

How did the response turn out when chain 1 SQQEADEVELSNNYDLQGAAVQYLQRRLRMVEDELHEAINSKNVQQSRSEEREQQISKLTDNLQEYRNTVRELKLDLEKSKKKNEDLS [chain 1 L52R] was run?
Its response is about 63.

How did the response turn out when chain 1 SQQEADEVELSNNYDLQGAAVQYLQRRLRMVEDELHEARNSKNVQQSRSEELEQQISKLTDNLQEYRNTVRELKLDLEKSKKKNEDLS [chain 1 I39R] was run?
Its response is about 90.

How did the response turn out when chain 1 SQQEADEVERSNNYDLQGAAVQYLQRRLRMVEDELHEAINSKNVQQSRSEELEQQISKLTDNLQEYRNTVRELKLDLEKSKKKNEDLS [chain 1 L10R] was run?
The response was about 87.
